Experimental data from patent publication US20220177564A1 (Ablynx, published 2022).
“And” between values parts separate entries of the source, which are not always exact repeats. Identical values can stand only once.

Experiments:
human IL-13 [1] = target: T1, human IL-13 (human, UniProt P35225 35-146, limits assumed); assay: AlphaScreen, purified ISVD; hIL-13 to hIL-13Rα1-hFc
T1 construct: Biotinylated in the binary complex AlphaScreen; Different commercial lots are kept as one molecule; also called hIL-13; hIL13

hIL13-Fc [2] = target: T2, hIL13-Fc (human, UniProt P35225 25-146); assay: SPR (BIAcore T100), hIL13-Fc immobilised on CM5; heterogeneous ligand fit, major interaction
T2 construct: not shown: Fc part and any linker not described

human IL-13 [3] = target: T1, human IL-13; assay: AlphaScreen, purified ISVD; hIL-13:hIL-13Rα1:hIL4Rα ternary complex
hIL13-Fc [4] = target: T2, hIL13-Fc; assay: SPR (ProteOn XPR36), periplasmic extract over immobilised Fc fusion
cyno IL13-Fc [5] = target: T3, cyno IL13-Fc (cynomolgus monkey, UniProt Q0PW92 11-132); assay: as above
T3 construct: not shown: Fc part and any linker not described

human IL-13 [6] = target: T1, human IL-13; assay: cell-based or functional assay
cyno IL13-Fc [7] = target: T3, cyno IL13-Fc; assay: SPR (BIAcore T100), cyno IL13-Fc immobilised on CM5; heterogeneous ligand fit, major interaction
hIL13-Fc [8] = target: T2, hIL13-Fc; assay: SPR; * measured on hIL-13-Fc (same values as Table 9)
hIL13-Fc [9] = target: T2, hIL13-Fc; assay: competition ELISA; hIL13-Fc to coated IL13Rα2
human IL4 = target: T4, human IL4 (human, UniProt P05112 25-153); assay: SPR (ProteOn XPR36), cytokine immobilised by amine coupling
T4 construct: also called human 1L4
T4 sequence (looked up): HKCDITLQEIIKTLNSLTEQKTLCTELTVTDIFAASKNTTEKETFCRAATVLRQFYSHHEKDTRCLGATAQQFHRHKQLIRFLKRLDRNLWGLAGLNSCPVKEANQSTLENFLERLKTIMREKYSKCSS

human IL7 = target: T5, human IL7 (human, UniProt P13232 26-177); assay: as above
T5 construct: also called 1L7
T5 sequence (looked up): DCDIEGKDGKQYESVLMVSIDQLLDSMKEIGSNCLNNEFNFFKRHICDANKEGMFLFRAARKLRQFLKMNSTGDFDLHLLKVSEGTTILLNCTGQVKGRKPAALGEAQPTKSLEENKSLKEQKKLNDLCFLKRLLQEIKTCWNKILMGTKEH

human IL-13 [10] = target: T1, human IL-13; assay: cell-based or functional assay; remark: listed apart in the source
cyno IL-13 [11] = target: T6, cyno IL-13 (cynomolgus monkey, UniProt Q0PW92 21-132); assay: cell-based or functional assay
rhesus IL-13 [12] = target: T7, rhesus IL-13 (rhesus monkey, UniProt Q864V6 19-132, limits assumed); assay: cell-based or functional assay
human IL-13 [13] = target: T1, human IL-13; assay: cell-based or functional assay; remark: listed apart in the source
cyno IL-13 [14] = target: T6, cyno IL-13; assay: cell-based or functional assay; remark: listed apart in the source
human TSLP [15] = target: T8, human TSLP (human, UniProt Q969D9 29-159); assay: cell-based or functional assay
short form of TSLP = short form of TSLP (UniProt Q969D9-2 1-63, limits assumed); assay: SPR (ProteOn), short form of TSLP immobilised
cyno TSLP [16] = target: T9, cyno TSLP (cynomolgus monkey, UniProt A0A7N9CAT7 29-159); assay: Gyrolab in-solution affinity, 72 h incubation
T9 construct: also called cynomolgus monkey TSLP

human TSLP [17] = target: T8, human TSLP; assay: Gyrolab in-solution affinity, 72 h incubation
human IL-13 [18] = target: T1, human IL-13; assay: Gyrolab in-solution affinity, 72 h incubation
cyno IL-13 [19] = target: T6, cyno IL-13; assay: Gyrolab in-solution affinity, 72 h incubation
rhesus IL-13 [20] = target: T7, rhesus IL-13; assay: Gyrolab in-solution affinity, 72 h incubation
cyno TSLP [21] = target: T9, cyno TSLP; assay: Gyrolab in-solution affinity, 48 h incubation
human TSLP [22] = target: T8, human TSLP; assay: Gyrolab in-solution affinity, 48 h incubation
human IL-13 [23] = target: T1, human IL-13; assay: Gyrolab in-solution affinity, 48 h incubation
cyno IL-13 [24] = target: T6, cyno IL-13; assay: Gyrolab in-solution affinity, 48 h incubation
human serum albumin = target: T10, human serum albumin (human, UniProt P02768 25-609); assay: Gyrolab in-solution affinity, 2 h incubation
T10 construct: also called HSA; SA (human)

mouse serum albumin = target: T11, mouse serum albumin (mouse, UniProt P07724 25-608); assay: Gyrolab in-solution affinity, 2 h incubation
T11 construct: also called SA (mouse)

cyno serum albumin = target: T12, cyno serum albumin (cynomolgus monkey); assay: Gyrolab in-solution affinity, 2 h incubation
T12 construct: also called SA (cynomolgus monkey)

cyno TSLP [25] = target: T9, cyno TSLP; assay: cell-based or functional assay
human TSLP [26] = target: T8, human TSLP; assay: cell-based or functional assay; remark: listed apart in the source
human TSLP [27] = target: T8, human TSLP; assay: SPR, hTSLP
human TSLP [28] = target: T8, human TSLP; assay: AlphaScreen, purified ISVD; hTSLP to hTSLPR
hTSLP-Fc [29] = target: T13, hTSLP-Fc (human, UniProt Q969D9 29-159); assay: SPR, hTSLP-hFc (same value as Table 10)
T13 construct: also called hTSLP-hFc; hTLSP-Fc; not shown: human Fc part and any linker not described

cyno TSLP-Fc [30] = target: T14, cyno TSLP-Fc (cynomolgus monkey, UniProt A0A7N9CAT7 29-159); assay: SPR (ProteOn XPR36), periplasmic extract over immobilised Fc fusion
T14 construct: also called cyno TSLP-hFc; not shown: human Fc part and any linker not described

hTSLP-Fc [31] = target: T13, hTSLP-Fc; assay: as above
human TSLP [32] = target: T8, human TSLP; assay: AlphaScreen, purified ISVD; hTSLP:hTSLPR:hIL7Rα ternary complex
cyno TSLP-Fc [33] = target: T14, cyno TSLP-Fc; assay: SPR (BIAcore T100), Fc fusion captured by anti-huIgG
hTSLP-Fc [34] = target: T13, hTSLP-Fc; assay: as above
cyno TSLP [35] = target: T9, cyno TSLP; assay: SPR, cyno TSLP
cyno TSLP-Fc [36] = target: T14, cyno TSLP-Fc; assay: SPR, cyno TSLP-hFc (same value as Table 10)
hIL13-Fc [37] = target: T2, hIL13-Fc; assay: competition ELISA; soluble IL-13Rα2 as positive control against coated IL13Rα2

B1: F0107004B02 (VHH)
VHH: EVQLVESGGGLVQAGGSLRLSCAASGRTFSSYRMGWFRQAPGKEREFVAALSGDGYSTYTANSVNSRFTISRDNAKNTVYLQMNSLKPEDTAIYYCAAKLQYVSGWSYDYPYWGQGTLVTVSS
notes: Wild-type anti-IL-13 ISVD; also called F010704B02; F107004B02; not shown: c-myc, His6 tag of the purified protein
IC50 (human IL-13 [1]): 4 nM | Kd (hIL13-Fc [2]): 1100 nM | koff (hIL13-Fc [2]): 0.024 s⁻¹ | kon (hIL13-Fc [2]): 22000 M⁻¹ s⁻¹ | IC50 (human IL-13 [3]): 1.7 nM | koff (hIL13-Fc [4]): 0.0017 s⁻¹ | koff (cyno IL13-Fc [5]): 0.0011 s⁻¹ | IC50, IL-13-induced TF-1 proliferation assay (human IL-13 [6]): 27 nM | Kd (cyno IL13-Fc [7]): 1900 nM | koff (cyno IL13-Fc [7]): 0.034 s⁻¹ | kon (cyno IL13-Fc [7]): 18000 M⁻¹ s⁻¹ | Kd (hIL13-Fc [8]): 1100 nM | koff (hIL13-Fc [8]): 0.024 s⁻¹ | kon (hIL13-Fc [8]): 22000 M⁻¹ s⁻¹ | IC50 (hIL13-Fc [9]): 49 nM

B2: F027400161 (other)
chain: DVQLVESGGGVVQPGGSLRLSCAASGRTFSSYRMGWFRQAPGKEREFVAALSGDGYSTYTANSVKGRFTISRDNSKNTVYLQMNSLRPEDTALYYCAAKLQYVSGWSYDYPYWGQGTLVTVSSGGGGSGGGGSGGGGSGGGGSGGGGSGGGGSGGGGSEVQLVESGGGVVQPGGSLRLSCAASGFTFNNYAMKWVRQAPGKGLEWVSSITTGGGSTDYADSVKGRFTISRDNSKNTLYLQMNSLRPEDTALYYCANVPFGYYSEHFSGLSFDYRGQGTLVTVSSGGGGSGGGSEVQLVESGGGVVQPGGSLRLSCAASGSGFGVNILYWYRQAAGIERELIASITSGGITNYVDSVKGRFTISRDNSENTMYLQMNSLRAEDTGLYYCASRNIFDGTTEWGQGTLVTVSSGGGGSGGGSEVQLVESGGGVVQPGGSLRLSCAASGFTFRSFGMSWVRQAPGKGPEWVSSISGSGSDTLYADSVKGRFTISRDNSKNTLYLQMNSLRPEDTALYYCTIGGSLSRSSQGTLVTVSSGGGGSGGGSEVQLVESGGGVVQPGGSLRLSCAASGFTFADYDYDIGWFRQAPGKEREGVSCISNRDGSTYYADSVKGRFTISRDNSKNTVYLQMNSLRPEDTALYYCAVEIHCDDYGVENFDFDPWGQGTLVTVSSA
notes: Pentavalent trispecific ISVD construct (two anti-IL-13 VHHs, two anti-TSLP VHHs, one anti-albumin VHH), Pichia pastoris, purified by Protein A; also called F027100161
binding result (human IL4): no binding (tested: 1 µM) | binding result (human IL7): no binding (tested: 1 µM) | eotaxin release assay (IC50, pM) (human IL-13 [10]): 194 pM | eotaxin release assay (IC50, pM) (cyno IL-13 [11]): 1040 pM | eotaxin release assay (IC50, pM) (rhesus IL-13 [12]): 713 pM | IC50, SEAP reporter assay (HEK-Blue IL-4/IL-13 cells) (human IL-13 [13]): 32.8 pM | IC50, SEAP reporter assay (HEK-Blue IL-4/IL-13 cells) (cyno IL-13 [14]): 53.4 pM | mean IC50, TSLP-induced CCL17 production in human DCs (human TSLP [15]): 53.3 pM | binding result (short form of TSLP): no binding (tested: 500 nM) | Kd (cyno TSLP [16]): 0.059 nM | Kd (human TSLP [17]): 1 pM | Kd (human IL-13 [18]): 4.7 pM | Kd (cyno IL-13 [19]): 3.5 pM | Kd (rhesus IL-13 [20]): 1.5 pM | Kd (cyno TSLP [21]): 0.0559 nM and 0.044 nM | Kd (human TSLP [22]): 1.8 pM and 2.3 pM | Kd (human IL-13 [23]): 4.2 pM and 6.3 pM | Kd (cyno IL-13 [24]): 3.8 pM and 1.5 pM | Kd (human serum albumin): 0.119 nM and 0.11 nM and 0.145 nM | Kd (mouse serum albumin): 1.8 nM | Kd (cyno serum albumin): 0.198 nM and 0.133 nM and 0.145 nM | BaF3 proliferation assay (IC50, pM) (cyno TSLP [25]): 24 pM | BaF3 proliferation assay (IC50, pM) (human TSLP [26]): 7.8 pM

B3: F0107529F10 (VHH)
VHH: EVQLVESGGGLVQAGGSLRLSCAASGFTFADYDYDIGWFRQAPGKEREGVSCISNRDGSTYYTDSVKGRFTISSDNAKNTVSLQMNSLKPEDTAVYYCAVEIHCDDYGVENFDFDPWGQGTLVTVSS
notes: Wild-type anti-TSLP ISVD; also called F107529F10; not shown: c-myc, His6 tag of the purified protein
koff (human TSLP [27]): 6.6e-05 s⁻¹ | IC50 (human TSLP [28]): 0.013 nM | Kd (hTSLP-Fc [29]): 0.035 nM | koff (cyno TSLP-Fc [30]): 0.0018 s⁻¹ | koff (hTSLP-Fc [31]): < 5e-05 s⁻¹ | IC50 (human TSLP [32]): 0.18 nM | Kd (cyno TSLP-Fc [33]): 1.7 nM | koff (cyno TSLP-Fc [33]): 0.0015 s⁻¹ | kon (cyno TSLP-Fc [33]): 870000 M⁻¹ s⁻¹ | Kd (hTSLP-Fc [34]): 0.035 nM | koff (hTSLP-Fc [34]): 0.00042 s⁻¹ | kon (hTSLP-Fc [34]): 1.2e+07 M⁻¹ s⁻¹ | koff (cyno TSLP [35]): 0.0018 s⁻¹ | Kd (cyno TSLP-Fc [36]): 1.7 nM

B4: IL13Rα2 (receptor, UniProt Q14627 27-343, looked up)
chain: DTEIKVNPPQDFEIVDPGYLGYLYLQWQPPLSLDHFKECTVEYELKYRNIGSETWKTIITKNLHYKDGFDLNKGIEAKIHTLLPWQCTNGSEVQSSWAETTYWISPQGIPETKVQDMDCVYYNWQYLLCSWKPGIGVLLDTNYNLFYWYEGLDHALQCVDYIKADGQNIGCRFPYLEASDYKDFYICVNGSSENKPIRSSYFTFQLQNIVKPLPPVYLTFTRESSCEIKLKWSIPLGPIPARCFDYEIEIREDDTTLVTATVENETYTLKTTNETRQLCFVVRSKVNIYCSDDGIWSEWSDKQCWEGEDLSKKTLLR
notes: Coated on the plate and also titrated in solution as positive control compound
IC50 (hIL13-Fc [37]): 7.9 nM
